Measurements taken from publication PMC9416875, “Structural basis for non-canonical integrin engagement by Bordetella adenylate cyclase toxin” (Cell reports, 2022).

Biological target: RTX751 (Bordetella pertussis adenylate cyclase toxin, ACT, residues 751-1,706) (Bordetella pertussis, UniProt P0DKX7)
Experiment: […], room temperature 20 min; […]; 20 mM Tris pH 7.5, 150 mM NaCl, 1 mM CaCl2, 1 mM MgCl2; […]
Details: both partners purified

B1: M1F5 Fab (anti-ACT RTX domain antibody M1F5) (Fab, V domains shown)
VH: QVQLKQSGPELVKPGASVRMSCKGSGYSFTFHNIHWVKQRPGQGLEWIGWIYPGDGNTKYNEKFKGKTTLTVDKSSNTAYMLLSSLTSEDSAIYFCAYGNYYFDQWGQGTTLTVSS
VL: IQMMQSTSSLSASLGDRVTISCSASQGITNYLNWYQQKPDGTVKLLIYYTSSLHSGVPSRFSGSGSGTDYSLTISNLEPEDIATYYCQQYSNLPWTFGGGTKLEIK
notes: also called M1F5 antibody; M1F5 IgG
stoichiometry N: 1
